Source: article PMC10252837, “A Novel Time-Resolved Fluorescence Resonance Energy Transfer Assay for the Discovery of Small-Molecule Inhibitors of HIV-1 Tat-Regulated Transcription” (International Journal of Molecular Sciences, 2023)
Square brackets hold non-standard residues; d marks the D form. Ends that are not written are not given here. Peptide text beside a SMILES is read from it. * marks the point of attachment. Biotin = O=C1N[C@H]2[C@H](CS[C@H]2CCCCC(=O)*)N1

Assays:
TAR RNA = target: TAR RNA; set-up: method as in PMID 19584251; conditions: EMSA; read-out: Kd determined by EMSA; cited from earlier work
[1] = system: Tat (ARM)-TAR RNA interaction
Procedure: To test whether our assay is applicable for screening specific inhibitors of the Tat-TAR RNA interaction, inhibition assays were performed with known inhibitors of the Tat-TAR RNA interaction. […] A dose–response competition assay was conducted at inhibitor concentrations of 0–100 μM to determine their inhibitory curves in our assay. […] Additionally, a dose-responsive competition assay using RNA fragments was performed to validate the specificity of the assay.
Data are expressed as the mean ± SD (n = 3) compared to a control lacking an RNA competitor.
The indicated concentrations of ARM and Cy5-TAR RNA fragments were incubated in 20 μL of 1× LANCE ultra assay buffer in 384-well microtiter plates with or without inhibitor (competitor) for 30 min at 20 °C in the dark. […] The reaction was performed in a final volume of 25 μL. Small volumes of the reaction solution were added automatically using Assist-Plus (Integra Bioscience, Zisers, Switzerland). After adding all the assay components, the plates were sealed with a clear cover. The ARM-TAR RNA interaction signal was measured in an EnSight multimode plate reader (PerkinElmer) using the LANCE protocol of the time-resolved fluorescence (TRF) mode in the Kaleido software (PerkinElmer), according to the manufacturer’s protocol. Briefly, the excitation light was directed to the donor (Eu) from the Xenon flash lamp at 320 nm selected by an optical filter, and then, an integration time of 100 μs and a delay time of 70 μs were provided to remove short-lived background signals; subsequently, two emission lights were detected at 615 nm for the donor (Eu) and 665 nm for the acceptor (Cy5). The TRF was measured from the top using an excitation filter and emission monochromators in a single measurement mode. The TR-FRET output signal was expressed as the emission ratio of acceptor/donor (665/615 nm × 1000) fluorescence counts. The fold activity of the TR-FRET signal for ARM-TAR RNA interaction was calculated compared to the control reaction lacking the ARM peptide.

[2] = target: T1, Tat (ARM)-TAR RNA interaction (Human immunodeficiency virus type 1 group M subtype B, UniProt P04608); test: TR-FRET assay with biotinylated ARM and Eu-conjugated StAV; assay type: binding, HIV-1; conditions: five-thousand-fold excess
T1 construct: purchased Peptron, Daejeon, Republic of Korea (custom peptide synthesis); host or cells: chemical synthesis
Text: Initially, a simplified TR-FRET assay was designed to determine the interaction of Tat (ARM)-TAR RNA using 5′-cyanine 5 (Cy5)-labeled TAR RNA (31 nt) and Tat (ARM) tagged with either biotin, HA, FLAG, or FITC; this was based on size-minimalized analytes to focus on the essential biochemical relevance of the Tat-TAR RNA interaction. After Tat (ARM) binds to the TAR RNA, each Eu-conjugated antibody recognized the cognate tag on the Tat (ARM) peptide. When the reaction is irradiated with a 320 nm laser, the emissive energy from the donor Eu chelate is then transferred to the Cy5 dye-labeled to TAR RNA placed at a close distance (~10 nm), resulting in luminescence at 665 nm from Cy5 and 615 nm from Eu. A certain substance inhibiting the Tat-TAR RNA interaction causes the loss of luminescence in the sample at 665 nm emission (Figure 1A). To determine which Eu-conjugated recognizer (anti-Flag, -HA, FITC antibodies, or streptavidin) is appropriate for successfully establishing the TR-FRET assay, 20 nM of ARM tagged with each epitope and the same concentration of Cy5-labeled TAR RNA fragment were incubated with 5 nM of cognate Eu-conjugated recognizer.
StAV-Eu + + + + + + + + + + + + + + + + + + + + + + StAV-Eu + + + + + + + + + + + + […]
Bio-ARM + + + + + + + + + + + + + + + + + + + + + Biotin-ARM - + - + - + - + - + - +
Competitor BSA ARM L-22 LK-3 L-50
Figure S1. […]

HIV-1 = conditions: read-out: IC50 of HIV-1 infection; cited from earlier work
L-51 cyclic peptide = test: TR-FRET competition
L-22 cyclic peptide = test: TR-FRET competition
L-50 cyclic peptide = test: TR-FRET competition
LK3 peptide = test: TR-FRET competition
Flag-Tat (ARM) [3] = target: T2, Flag-Tat (ARM) (HIV-1 NL4-3, UniProt P04608); test: TR-FRET; 50 nM each; conditions: tags: N-terminal FLAG; label: 5'-Cy5; hairpin without bulge
T2 chain: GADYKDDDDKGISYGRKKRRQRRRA

Tat (ARM), tag-free = target: T3, Tat (ARM), tag-free (HIV-1 NL4-3, UniProt P04608); test: competition; TR-FRET, 10-fold excess over Flag-ARM; conditions: label: 5'-Cy5; hairpin with UCU bulge
T3 chain: GISYGRKKRRQRRRA

Biotin-Tat (ARM) = target: T4, Biotin-Tat (ARM) (HIV-1 NL4-3, UniProt P04608); test: TR-FRET; 20 nM each; Eu-StAV; poorly competed by free ARM and L-22; conditions: tags: N-terminal biotin; label: 5'-Cy5; hairpin with UCU bulge
T4 chain: Biotin-GISYGRKKRRQRRRA

Flag-Tat (ARM) [4] = target: T2, Flag-Tat (ARM); test: TR-FRET; up to 100 nM each; Eu-anti-Flag 5 nM; conditions: tags: N-terminal FLAG; label: 5'-Cy5; hairpin with UCU bulge

**Q.** With `CC[C@H](C)[C@@H]1NC(=O)[C@H](CCCNC(=N)N)NC(=O)[C@H](CCCNC(=N)N)NC(=O)CNC(=O)[C@H](CCCCN)NC(=O)[C@H](CCCNC(=N)N)NC(=O)[C@H]([C@@H](C)O)NC(=O)[C@H](CCCNC(=N)N)NC(=O)[C@H](C(C)C)NC(=O)[C@H](CCCNC(=N)N)NC(=O)[C@@H]2CCCN2C(=O)[C@H]2CCCN2C(=O)[C@H]([C@@H](C)CC)NC(=O)[C@H](CCCNC(=N)N)NC1=O` [Hit L-22] (cyclo(RVRTRKGRRIRI[dP]P)) as the molecule, how does the Kd (TAR RNA) read?
**A.** Its Kd is 30 nM.

**Q.** And the IC50 ([1]; read-out: IC50 of ARM-TAR RNA interaction (TR-FRET competition), 50 nM Flag-ARM and 5′-Cy5-TAR RNA, inhibitor 0-100 μM)?
**A.** The IC50 was 228 nM.

**Q.** What about the “inhibition of TR-FRET signal, in words” value [2] of the same molecule?
**A.** The value was “insufficient inhibition”.

**Q.** With `Nc1ccc2oc(-c3cc(F)c(F)cc3Cl)nc2c1` [Hit T0516-4834] as the molecule, how does the IC50 (HIV-1) read?
**A.** Its IC50 is 200 nM.

**Q.** With “GGCCAGAUCUGAGCCUGGGAGCUCUCUGGCC [Cy5-TAR RNA (31 nt)]” as the molecule, how does the IC50 (L-51 cyclic peptide) read?
**A.** Its IC50 is 276 nM.

**Q.** What about the IC50 (L-22 cyclic peptide) of the same molecule?
**A.** Its IC50 is 228 nM.

**Q.** And the IC50 (L-50 cyclic peptide)?
**A.** Its IC50 is 95.9 nM.

**Q.** What about the IC50 (LK3 peptide) of the same molecule?
**A.** Its IC50 is 67.8 nM.

**Q.** What does the source list for GISYGRKKRRQRRRA [ARM]?
**A.** inhibition of TR-FRET signal ([1]; 500 nM competitor, control of primary screen): ~ 70%; TR-FRET signal in peptide/protein competition assay, in words ([1]; 10-fold excess competitor, 50 nM analytes): significantly decreased; inhibition of TR-FRET signal, in words [2]: insufficient inhibition

**Q.** Does GGCCAGAGAGCCUGGGAGCUCUCUGGCC (structured_RNA) [Cy5-mt TAR RNA (28 nt, bulge-free)] bind (Flag-Tat (ARM) [3])?
**A.** Result: no binding

**Q.** Which results are given for GGCCAGAUCUGAGCCUGGGAGCUCUCUGGCC (structured_RNA) [Cy5-TAR RNA (31 nt)]?
**A.** binding result (Tat (ARM), tag-free): binds; binding result (Biotin-Tat (ARM)): binds; binding signal (Flag-Tat (ARM) [4]): ~11 fold signal over background
